In article PMC10837151:

Molecular target: asymmetric nucleosome with H2B-Ser6 tri-ADP-ribose on one side only (Nuc-H2B-ADPr3) (Xenopus laevis | not stated) (UniProt P02281)
Test: cryo-EM structure; modified nucleosomes at 1 µM, ALC1 at 6 µM, ADP-BeF3 at 1 mM, incubated 60 minutes on ice before vitrification

ALC1 (Amplified in Liver Cancer 1), wild-type construct (16-879), sequence (Q86WJ1 16-879): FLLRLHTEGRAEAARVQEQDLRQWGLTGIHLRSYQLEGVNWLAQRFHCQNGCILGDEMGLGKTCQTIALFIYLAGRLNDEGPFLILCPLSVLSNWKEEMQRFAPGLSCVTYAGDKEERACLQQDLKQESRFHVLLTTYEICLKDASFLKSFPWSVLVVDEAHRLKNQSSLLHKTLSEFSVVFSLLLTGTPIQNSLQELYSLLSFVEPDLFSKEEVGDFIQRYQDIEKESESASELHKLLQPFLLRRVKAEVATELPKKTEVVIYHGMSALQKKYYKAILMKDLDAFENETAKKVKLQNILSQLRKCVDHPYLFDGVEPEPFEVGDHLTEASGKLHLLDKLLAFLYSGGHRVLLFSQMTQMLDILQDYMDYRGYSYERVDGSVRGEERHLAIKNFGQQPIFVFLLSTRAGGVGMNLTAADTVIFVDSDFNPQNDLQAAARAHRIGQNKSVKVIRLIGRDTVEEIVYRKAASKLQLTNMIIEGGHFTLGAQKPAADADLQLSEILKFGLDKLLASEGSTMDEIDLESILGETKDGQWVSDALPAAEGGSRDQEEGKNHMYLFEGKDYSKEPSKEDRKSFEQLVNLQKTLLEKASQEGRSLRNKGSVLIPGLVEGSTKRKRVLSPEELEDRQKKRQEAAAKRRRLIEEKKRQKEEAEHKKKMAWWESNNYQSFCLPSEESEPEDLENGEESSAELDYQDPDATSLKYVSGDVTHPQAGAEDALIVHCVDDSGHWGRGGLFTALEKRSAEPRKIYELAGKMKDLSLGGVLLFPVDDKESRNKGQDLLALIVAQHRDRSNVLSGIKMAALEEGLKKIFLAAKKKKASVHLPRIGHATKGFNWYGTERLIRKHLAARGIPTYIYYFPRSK

ALC1 (Amplified in Liver Cancer 1), wild-type construct (16-879) (from UniProt Q86WJ1 16-879) (enzyme)
stoichiometry N: 1
